Substitutions are numbered along the chain they refer to. Names and notes keep the numbering of the source.
Key:
Experiment in all cases: purified protein, by the assay type
[1] = substrate: NC(=O)C1=CN([C@@H]2O[C@H](COP(=O)(O)OP(=O)(O)OC[C@H]3O[C@@H](n4cnc5c(N)ncnc54)[C@H](O)[C@@H]3O)[C@@H](O)[C@H]2O)C=CC1; format: biochemical, Bacillus stearothermophilus; details: other: WT; in the presence of 0.5 mM pyruvate; pH 6.0
Description: (§1) Steady-state reaction rates were determined by following the change in A340 due to the consumption of NADH. […] The buffer for all experiments was 100rmM triethanolamine-HC1/NaOH,pH 6.

[2] = substrate: CC(=O)C(=O)O; format: biochemical, Bacillus stearothermophilus; details: other: WT, No FBP, pH 6
Description: as §1

[3] = substrate: NC(=O)C1=CN([C@@H]2O[C@H](COP(=O)(O)OP(=O)(O)OC[C@H]3O[C@@H](n4cnc5c(N)ncnc54)[C@H](O)[C@@H]3O)[C@@H](O)[C@H]2O)C=CC1; format: biochemical; details: in the presence of 0.5 mM pyruvate, pH 6.0
Description: as §1

[4] = substrate: CC(=O)C(=O)O; format: biochemical; details: other: MVS, No FBP, pH 6
Description: as §1

[5] = substrate: NC(=O)C1=CN([C@@H]2O[C@H](COP(=O)(O)OP(=O)(O)OC[C@H]3O[C@@H](n4cnc5c(N)ncnc54)[C@H](O)[C@@H]3O)[C@@H](O)[C@H]2O)C=CC1; details: other: GG; in the presence of 0.5 mM pyruvate; pH 6.0
Description: as §1

B1: Bacillus stearothermophilus NAD-dependent L-lactate dehydrogenase, wild type (WT) (Geobacillus stearothermophilus) (protein)
chain: MKNNGGARVVVIGAGFVGASYVFALMNQGIADEIVLIDANESKAIGDAMDFNHGKVFAPKPVDIWHGDYDDCRDADLVVICAGANQKPGETRLDLVDKNIAIFRSIVESVMASGFQGLFLVATNPVDILTYATWKFSGLPHERVIGSGTILDTARFRFLLGEYFSVAPQNVHAYIIGEHGDTELPVWSQAYIGVMPIRKLVESKGEEAQKDLERIFVNVRDAAYQIIEKKGATYYGIAMGLARVTRAILHNENAILTVSAYLDGLYGERDVYIGVPAVINRNGIREVIEIELNDDEKNRFHHSAATLKSVLARAFTR
notes: made in house; host or cells: E. coli
Question: Which results are given for B1?
Answer: Km [1]: 18 µM; Km [2]: 3000 µM; kcat/Km [2]: 83000 M⁻¹ s⁻¹

B2: Bacillus stearothermophilus L-lactate dehydrogenase variant MVS (102-5 QKP→MVS) (Geobacillus stearothermophilus; K87V/P88S/Q86M) (protein)
chain: B1 chain with Q86M, K87V, P88S
notes: made in house; host or cells: E. coli TG2, vector pKK223-3
Question: What does the source list for B2?
Answer: Km ([3]; other: MVS): 14.5 µM; Km [4]: 15000 µM; kcat [4]: 61 s⁻¹; kcat/Km [4]: 4100 M⁻¹ s⁻¹

B3: Bacillus stearothermophilus L-lactate dehydrogenase variant GG (235-6 AA→GG) (Geobacillus stearothermophilus; A222G/A223G) (protein)
chain: B1 chain with A222G, A223G
Question: For B3, which Km [5] is on record?
Answer: The Km was 18 µM.

B4: Bacillus stearothermophilus L-lactate dehydrogenase variant MVS/GG (102-5 QKP→MVS and 235-6 AA→GG) (Geobacillus stearothermophilus; A222G/A223G/K87V/P88S/Q86M) (protein)
chain: B1 chain with Q86M, K87V, P88S, A222G, A223G
notes: as for B2
Question: With B4 as the protein, how does the Km ([3]; other: MVS/GG) read?
Answer: The Km was 14.5 µM.

Reference: patent publication US5354676A, “Recombinant modified thermostable NAD-dependent dehydrogenases and process for their production” (The University of Bristol, priority 1989, dated 1994)
